Among the data in publication PMC2361611 are Kd and endothelial cell apoptotic activity: viability of HUVE cells plated overnight on wells coated with 1 ug protein, Alamar blue assay (fold lower than angiocidin) values, retold here.

Like-named read-outs stand apart in the source and are kept apart here.

The target of test [1] is polyubiquitin (UniProt P0CG48). Description: ELISA; 0.50 ug polyubiquitin dried per well (Nunc MaxiSorp), blocked with 1% BSA; angiocidin or mutants at various concentrations in TBST pH 7.4, 1.5 h, room temperature; detected with biotinylated rabbit antiangiocidin IgG and streptavidin-HRP; fitted to a rectangular hyperbola. (In general: An ELISA detects its analyte on a solid surface through an enzyme-linked reagent.)

Test [2] has as its target polyubiquitin (UniProt P0CG48).
For test [3], the target named is polyubiquitin (UniProt P0CG48). Description: ELISA; 0.50 ug polyubiquitin dried per well (Nunc MaxiSorp), blocked with 1% BSA; angiocidin or mutants at various concentrations in TBST pH 7.4, 1.5 h, room temperature; detected with biotinylated rabbit antiangiocidin IgG and streptavidin-HRP; fitted to a rectangular hyperbola. This is another data set of the same source.

The term Kd denotes the free concentration of one partner at which half of the binding sites on the other are occupied at equilibrium, for simple one-to-one binding.

“angiocidin (his-tagged recombinant, full length) (natural protein)” came in with a Kd in test [1] of 0.041 nM.
Substance “angiocidin mutant M-2 (L216ALAL220 substituted with alanines) (natural protein)” returned an endothelial cell apoptotic activity: viability of HUVE cells plated overnight on wells coated with 1 ug protein, Alamar blue assay (fold lower than angiocidin) in test [2] of 2. Besides, the equilibrium dissociation constant (Kd) in test [1] worked out at 15 nM; in test [3], 1.52 nM.
